Measured values published in patent US20150086562A1 (BIOATLA, published 2015).

T1: CD22 protein expressed on the surface of Daudi cells (human, UniProt P20273 20-847)
T1 construct: whole, on cells; also called human CD22; cell surface CD22
T1 sequence (looked up): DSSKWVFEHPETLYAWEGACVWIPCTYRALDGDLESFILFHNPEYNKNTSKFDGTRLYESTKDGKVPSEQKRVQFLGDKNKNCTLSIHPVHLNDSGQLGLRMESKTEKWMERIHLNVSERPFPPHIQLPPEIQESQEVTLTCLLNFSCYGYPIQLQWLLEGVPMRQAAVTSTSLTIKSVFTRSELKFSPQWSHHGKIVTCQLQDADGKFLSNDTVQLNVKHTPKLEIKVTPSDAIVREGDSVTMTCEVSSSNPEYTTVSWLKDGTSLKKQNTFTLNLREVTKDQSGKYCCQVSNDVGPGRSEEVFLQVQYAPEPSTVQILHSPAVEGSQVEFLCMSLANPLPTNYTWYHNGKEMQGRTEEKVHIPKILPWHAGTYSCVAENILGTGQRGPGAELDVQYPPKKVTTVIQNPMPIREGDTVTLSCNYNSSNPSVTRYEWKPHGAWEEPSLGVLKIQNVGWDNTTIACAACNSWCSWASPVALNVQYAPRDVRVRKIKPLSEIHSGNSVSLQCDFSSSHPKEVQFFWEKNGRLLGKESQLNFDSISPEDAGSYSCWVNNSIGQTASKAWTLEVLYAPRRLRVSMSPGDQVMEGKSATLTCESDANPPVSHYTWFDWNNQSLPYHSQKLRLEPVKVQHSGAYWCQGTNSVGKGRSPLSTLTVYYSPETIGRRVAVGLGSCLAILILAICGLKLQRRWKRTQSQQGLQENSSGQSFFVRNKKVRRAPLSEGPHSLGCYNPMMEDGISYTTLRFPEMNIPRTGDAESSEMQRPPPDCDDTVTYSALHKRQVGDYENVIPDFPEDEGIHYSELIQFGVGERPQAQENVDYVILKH


Legend:
[1] = molecular target: T1, CD22 protein expressed on the surface …; assay: Quantitative confocal immunofluorescence of directly FITC-labelled antibody (5 ug/ml, 45 min on ice) on Daudi cells. paragraph 243 calls these 'RMF surface binding values'.
Description: (§1) Selected antiCD22 selected anti-CD22 Mab clones VM1000, VM1001, VM1002, VM1003, VM1004, VM1005, VM1006, VM1007, VM1008, VM1009, VM1010, VM1011, VM1012, VM1013, VM1014, and VM1015 of the invention were directly conjugated to F1TC using the Zenon labeling complex (Molecular Probes) using the manufacturer's recommended procedures. Approximately 1×10e7 Daudi cells were resuspended in PBS containing 5 ug/ml labeled anti-CD22 antibody and incubated for 45 minutes on ice. Cells then washed twice in PBS-FBS solution at 0 C. Cells were then incubated in RPMI 1640 media containing 10% FBS for varying periods at 37 C, harvested and washed in PBS at 0 C. The cells were then briefly fixed in 4% paraformaldehyde solution for 5 min at room temperature, then washed in PBS containing 0.05% Triton X-100. Cell pellets were collected by centrifugation and resupended in a minimal volume of FBS neat, and then applied to glass microscope slides. Prior to analysis, slides were treated with mounting fluid containing the nuclear stain DAPI, then coverslips were applied. Confocal images were recorded using an ACAS Ultima confocal microscope (Meridian Instruments, Inc., Okemos, Mich.) and represent 1-μm sections through the center of a focal plane using a 100× oil immersion objective.
(§2) The Anti-CD22 monoclonal antibodies selected clones VM1000, VM1001, VM1002, VM1003, VM1004, VM1005, VM1006, VM1007, VM1008, VM1009, VM1010, VM1011, VM1012, VM1013, VM1014, and VM1015 of the invention were analysed for their ability to be rapidly internalized into the intracellular compartment as judged by immunoflourescent signal on the cell surface versus the intracellular endo cytotic compartment. The antibodies of the invention were compared to BA006H, and humanized version of the murine monoclonal antibody LL2. In this example, FIG. 21A, the anti-CD22 antibodies of the invention bind to CD22 protein expressed on the surface of Daudi cells by approximately 20-fold compared to BA006H as judged by relative mean fluorescence (RMF), and are virtually completely internalized within the cell with 90 minutes, localizing predominantly to within the perinuclear golgi apparatus and associated lysozomes. Shown in FIG. 21B is a chart of the RMF surface binding values obtained in this manner for individual anti-CD22 antibodies of the invention.

[2] = molecular target: T1, CD22 protein expressed on the surface …; assay: cell-based or functional assay
[3] = molecular target: T1, CD22 protein expressed on the surface …; assay: confocal immunofluorescence, FITC-labelled antibody on Daudi cells
Description: as §1, §2

Binder	RMF (Daudi Internalization by Confocal) [1]	Daudi Internalization by FACS, % Shift [2]	fold surface binding by relative mean fluorescence (RMF) compared to BA006H [3]
VM1007 (antibody, V domains shown, Humanized antibody with human constant region; also called anti-CD22 Mab clone VM1007) VH: QVQLVQSGAEVKKPGASVKVSCKASGYVFTSYWLHWVRQARGQRLEWIGYINPRNDYTEYNRIFKGRVTITADKSTSTAYMELSSLRSEDTAVYYCARRGITTFYWGQG VL: AIQLTQSPSSLSASVGDRVTITCKSSQSVLYSAVEKNYLAWYQQKPGKAPKLLIYWASTRERGVPSRFSGSGSGTDFTFTISSLEAEDAATYYCKQYLSSWTFGQG	~200 RMF	85%	~20 fold
VM1000 (antibody, V domains shown, Humanized antibody with human constant region; also called anti-CD22 Mab clone VM1000) VH: QVQLVQSGAEVKKPGASVKVSCKASGYVFTSYWLHWIRQSPSRGLEWLGYINPRNDYTEYNRIFKGRLTISKDTSKNQVVLTMTNMDPVDTATYYCARRGITTFYWGQG VL: EIVLTQSPATLSLSPGERATLSCKSSQSVLYSAVEKNYLAWYQQKPGKAPKLLIYWASTRERGVPSRFSGSGSGTDFTFTISSLQPEDIATYYCKQYLSSWTFGQG	~100 RMF	85.9%	~20 fold
VM1002 (antibody, V domains shown, Humanized antibody with human constant region; also called anti-CD22 Mab clone VM1002) VH: EVQLVQSGAEVKKPGESLRISCKGSGYVFTSYWLHWVRQAPGQGLEWMGYINPRNDYTEYNRIFKGRVTITADKSTSTAYMELSSLRSEDTAVYYCARRGITTFYWGQG VL: EIVLTQSPATLSLSPGERATLSCKSSQSVLYSAVEKNYLAWYQQKPGQAPRLLIYWASTRERGIPDRFSGSGSGTDFTLTISRLEPEDFAVYYCKQYLSSWTFGQG	~150 RMF	84.6%	~20 fold
VM1011 (antibody, V domains shown, Humanized antibody with human constant region; also called anti-CD22 Mab clone VM1011) VH: QVQLQESGPGLVKPSQTLSLTCTVSGYVFTSYWLHWIRQPPGKGLEWIGYINPRNDYTEYNRIFKGRVTITADKSTSTAYMELSSLRSEDTAVYYCARRGITTFYWGQG VL: EIVLTQSPATLSLSPGERATLSCKSSQSVLYSAVEKNYLAWYQQKPGQAPRLLIYWASTRERGIPDRFSGSGSGTDFTLTISRLEPEDFAVYYCKQYLSSWTFGQG	~200 RMF	87.1%	~20 fold
VM1004 (antibody, V domains shown, Humanized antibody with human constant region; also called anti-CD22 Mab clone VM1004) VH: EVQLVQSGAEVKKPGATVKISCKVSGYVFTSYWLHWIRQSPSRGLEWLGYINPRNDYTEYNRIFKGRFVFSLDTSVSTAYLQICSLKAEDTAVYYCARRGITTFYWGQG VL: EIVLTQSPATLSLSPGERATLSCKSSQSVLYSAVEKNYLAWYQQKPGKAPKLLIYWASTRERGIPDRFSGSGSGTDFTLTISRLEPEDFAVYYCKQYLSSWTFGQG	~100 RMF	87.1%	~20 fold

Other lines, results leading:

RMF (Daudi Internalization by Confocal) [1]	Daudi Internalization by FACS, % Shift [2]	fold surface binding by relative mean fluorescence (RMF) compared to BA006H [3]	Binder
~200 RMF	88.3%	~20 fold	VM1006 (antibody, V domains shown, Humanized antibody with human constant region; also called anti-CD22 Mab clone VM1006) VH: QVQLVQSGAEVKKPGASVKVSCKASGYVFTSYWLHWIRQSPSRGLEWLGYINPRNDYTEYNRIFKGRFVFSLDTSVSTAYLQICSLKAEDTAVYYCARRGITTFYWGQG VL: DIQMTQSPSSLSASVGDRVTITCKSSQSVLYSAVEKNYLAWYQQKPGKAPKLLIYWASTRERGIPDRFSGSGSGTDFTLTISRLEPEDFAVYYCKQYLSSWTFGQG
~150 RMF	70.8%	~20 fold	VM1003 (antibody, V domains shown, Humanized antibody with human constant region; also called anti-CD22 Mab clone VM1003) VH: EVQLVQSGAEVKKPGATVKISCKVSGYVFTSYWLHWIRQSPSRGLEWLGYINPRNDYTEYNRIFKGRFVFSLDTSVSTAYLQICSLKAEDTAVYYCARRGITTFYWGQG VL: EIVLTQSPATLSLSPGERATLSCKSSQSVLYSAVEKNYLAWYQQKPGQAPRLLIYWASTRERGIPDRFSGSGSGTDFTLTISRLEPEDFAVYYCKQYLSSWTFGQG
~100 RMF	86.4%	~20 fold	VM1001 (antibody, V domains shown, Humanized antibody with human constant region; also called anti-CD22 Mab clone VM1001) VH: QVQLVQSGAEVKKPGASVKVSCKASGYVFTSYWLHWIRQSPSRGLEWLGYINPRNDYTEYNRIFKGRLTISKDTSKNQVVLTMTNMDPVDTATYYCARRGITTFYWGQG VL: EIVLTQSPATLSLSPGERATLSCKSSQSVLYSAVEKNYLAWYQQKPGQAPRLLIYWASTRERGIPDRFSGSGSGTDFTLTISRLEPEDFAVYYCKQYLSSWTFGQG
